{"source": "patent US20240410901A1", "key": {"[1]": {"target": "F-actin (G-actin polymerized, filaments stabilized with phalloidin)", "assay": "cosedimentation with 0.5 µM phalloidin-stabilized F-actin, SDS-PAGE of the pellet, hyperbolic fit"}, "[2]": {"target": "actin filaments of D. melanogaster S2 cells (lamellipodial actin ring, patches, filopodia) (D. melanogaster)", "assay": "TIRF imaging of a fixed S2 cell expressing mCherry-Lifeact stained with Alexa Fluor 488 phalloidin; panel a, lower cell"}, "[3]": {"target": "actin filaments of D. melanogaster S2 cells (lamellipodial actin ring, patches, filopodia) (D. melanogaster)", "assay": "TIRF imaging of a fixed S2 cell expressing mCherry-Lifeact stained with Alexa Fluor 488 phalloidin; panel a, upper cell"}, "[4]": {"target": "actin filaments of D. melanogaster S2 cells (lamellipodial actin ring, patches, filopodia) (D. melanogaster)", "assay": "TIRF imaging of S2 cells before and after blue light"}, "[5]": {"target": "actin filaments of D. melanogaster S2 cells (lamellipodial actin ring, patches, filopodia) (D. melanogaster)", "assay": "TIRF image of an S2 cell before blue-light excitation, panel a; outer and inner rings hand traced"}, "[6]": {"target": "actin filaments of D. melanogaster S2 cells (lamellipodial actin ring, patches, filopodia) (D. melanogaster)", "assay": "TIRF imaging of a repeatedly excited S2 cell; actin labeling ratio over time, panel f, recovery after the 1st excitation (black exponential fit)"}, "[7]": {"target": "actin filaments of D. melanogaster S2 cells (lamellipodial actin ring, patches, filopodia) (D. melanogaster)", "assay": "TIRF imaging of a live S2 cell; actin labeling ratio over time, panel B, recovery after the 1st blue-light excitation (black exponential fit drawn on this one)"}, "[8]": {"target": "actin filaments of D. melanogaster S2 cells (lamellipodial actin ring, patches, filopodia) (D. melanogaster)", "assay": "TIRF image of the same S2 cell after blue-light excitation, panel b; outer and inner rings hand traced"}, "[9]": {"target": "actin filaments of D. melanogaster S2 cells (lamellipodial actin ring, patches, filopodia) (D. melanogaster)", "assay": "TIRF imaging of a repeatedly excited S2 cell; actin labeling ratio over time, panel f, recovery after the 4th excitation"}, "[10]": {"target": "actin filaments of D. melanogaster S2 cells (lamellipodial actin ring, patches, filopodia) (D. melanogaster)", "assay": "TIRF imaging of an S2 cell expressing mCherry-LILAC, fixed under blue light and stained with Alexa Fluor 488 phalloidin; panel b, lower cell"}, "[11]": {"target": "actin filaments of D. melanogaster S2 cells (lamellipodial actin ring, patches, filopodia) (D. melanogaster)", "assay": "TIRF imaging of a repeatedly excited S2 cell; actin labeling ratio over time, panel f, recovery after the 2nd excitation"}, "[12]": {"target": "actin filaments of D. melanogaster S2 cells (lamellipodial actin ring, patches, filopodia) (D. melanogaster)", "assay": "cell-based or functional assay"}, "[13]": {"target": "actin filaments of D. melanogaster S2 cells (lamellipodial actin ring, patches, filopodia) (D. melanogaster)", "assay": "TIRF imaging of an S2 cell expressing mCherry-LILAC, fixed under blue light and stained with Alexa Fluor 488 phalloidin; panel b, upper cell"}, "[14]": {"target": "actin filaments of D. melanogaster S2 cells (lamellipodial actin ring, patches, filopodia) (D. melanogaster)", "assay": "TIRF images of an S2 cell before and after blue-light excitation, printed in panel b"}, "[15]": {"target": "actin filaments of D. melanogaster S2 cells (lamellipodial actin ring, patches, filopodia) (D. melanogaster)", "assay": "TIRF imaging of a live S2 cell; actin labeling ratio over time, panel B, recovery after the 2nd blue-light excitation"}, "[16]": {"target": "actin filaments of D. melanogaster S2 cells (lamellipodial actin ring, patches, filopodia) (D. melanogaster)", "assay": "TIRF imaging of a live S2 cell; actin labeling ratio over time, panel B, recovery after the 3rd blue-light excitation"}, "[17]": {"target": "actin filaments of D. melanogaster S2 cells (lamellipodial actin ring, patches, filopodia) (D. melanogaster)", "assay": "TIRF imaging of a repeatedly excited S2 cell; actin labeling ratio over time, panel f, recovery after the 3rd excitation"}, "[18]": {"target": "actin filaments of D. melanogaster S2 cells (lamellipodial actin ring, patches, filopodia) (D. melanogaster)", "assay": "TIRF imaging of a live S2 cell; actin labeling ratio over time, panel B, recovery after the 4th blue-light excitation"}}}
{"molecule": "mCherry-Lifeact, expressed in E. coli and purified (6×His-mCherry-TEV-Lifeact from the pET21-mCherry-Lifeact vector) (from UniProt Q08641 1-17)", "values": [{"measurement": "Kd", "setting": "[1]", "result": 3.9, "unit": "µM"}]}
{"molecule": "mCherry-Lifeact expressed in Drosophila S2 cells (pMT-mCherry-Lifeact vector) (from UniProt Q08641 1-17)", "values": [{"measurement": "r (Pearson's correlation coefficient with the phalloidin image)", "setting": "[2]", "result": 0.89}, {"measurement": "r (Pearson's correlation coefficient with the phalloidin image)", "setting": "[3]", "result": 0.83}, {"measurement": "switching ratio (fold change of the actin labeling ratio, post/pre-excitation)", "setting": "[4]", "result": 1}]}
{"molecule": "mCherry-LILAC expressed in Drosophila S2 cells (pMT vector) (designed binder, not shown: large carriers) GGSGGSGGSGEFLATTLERIEKNFVITDPRLPDNPIIFASDSFLQLTEYSREEILGRNCRFLQGPETDRATVRKIRDAIDNQTEVTVQLINYTKSGKKFWNLFHLQPMRDQKGDVQYFIGVQLDGTEHVRDAAEREAVMLAKKTAEEIDEAAMGVADLIKKFESISKEE", "values": [{"measurement": "ALR (actin labeling ratio, intensity outer / intensity inner)", "setting": "[5]", "result": 0.39}, {"measurement": "τ (time constant of the decay of the actin labeling ratio after excitation)", "setting": "[6]", "result": 71, "unit": "s"}, {"measurement": "τ (time constant of the decay of the actin labeling ratio after excitation)", "setting": "[7]", "result": 71, "unit": "s"}, {"measurement": "ALR (actin labeling ratio, intensity outer / intensity inner)", "setting": "[8]", "result": 0.79}, {"measurement": "τ (time constant of the decay of the actin labeling ratio after excitation)", "setting": "[9]", "result": 59, "unit": "s"}, {"measurement": "r (Pearson's correlation coefficient with the phalloidin image)", "setting": "[10]", "result": 0.62}, {"measurement": "switching ratio (fold change of the actin labeling ratio, post/pre-excitation)", "setting": "[4]", "result": 1.6}, {"measurement": "τ (time constant of the decay of the actin labeling ratio after excitation)", "setting": "[11]", "result": 73, "unit": "s"}, {"measurement": "dark state recovery time constant, from actin labeling ratio traces", "setting": "[12]", "result": 63, "unit": "s"}, {"measurement": "r (Pearson's correlation coefficient with the phalloidin image)", "setting": "[13]", "result": 0.6}, {"measurement": "ASR (actin switching ratio, ALR post / ALR pre)", "setting": "[14]", "result": 2.02}, {"measurement": "τ (time constant of the decay of the actin labeling ratio after excitation)", "setting": "[15]", "result": 73, "unit": "s"}, {"measurement": "τ (time constant of the decay of the actin labeling ratio after excitation)", "setting": "[16]", "result": 61, "unit": "s"}, {"measurement": "τ (time constant of the decay of the actin labeling ratio after excitation)", "setting": "[17]", "result": 61, "unit": "s"}, {"measurement": "τ (time constant of the decay of the actin labeling ratio after excitation)", "setting": "[18]", "result": 59, "unit": "s"}]}
{"molecule": "mCherry-LILAC T406A/T407A expressed in Drosophila S2 cells (pMT vector) (designed binder, not shown: large carriers) GGSGGSGGSGEFLAAALERIEKNFVITDPRLPDNPIIFASDSFLQLTEYSREEILGRNCRFLQGPETDRATVRKIRDAIDNQTEVTVQLINYTKSGKKFWNLFHLQPMRDQKGDVQYFIGVQLDGTEHVRDAAEREAVMLAKKTAEEIDEAAMGVADLIKKFESISKEE", "values": [{"measurement": "dark state recovery time constant, from actin labeling ratio traces", "setting": "[12]", "result": 50, "unit": "s"}]}
{"molecule": "mCherry-LILAC I539E expressed in Drosophila S2 cells (pMT vector) (designed binder, not shown: large carriers) GGSGGSGGSGEFLATTLERIEKNFVITDPRLPDNPIIFASDSFLQLTEYSREEILGRNCRFLQGPETDRATVRKIRDAIDNQTEVTVQLINYTKSGKKFWNLFHLQPMRDQKGDVQYFIGVQLDGTEHVRDAAEREAVMLAKKTAEEEDEAAMGVADLIKKFESISKEE", "values": [{"measurement": "switching ratio (fold change of the actin labeling ratio, post/pre-excitation)", "setting": "[4]", "result": 1}]}
{"molecule": "mCherry-LILAC I539E, expressed in E. coli and purified (6×His-mCherry-TEV-LILAC with I539E, pET21) (designed binder, not shown: large carriers; small tags and cut ends) HHHHHHGEFLATTLERIEKNFVITDPRLPDNPIIFASDSFLQLTEYSREEILGRNCRFLQGPETDRATVRKIRDAIDNQTEVTVQLINYTKSGKKFWNLFHLQPMRDQKGDVQYFIGVQLDGTEHVRDAAEREAVMLAKKTAEEEDEAAMGVADLIKKFESISKEE", "values": [{"measurement": "Kd", "setting": "[1]", "result": 3.4, "unit": "µM"}]}
